The supplement of paper PMC10201428
± gives the standard deviation of the averaged measurements.

B1: library; a variant is named by its letters at N, in order (parent)
chain: AATGTTGTTGATGCAACCATAAAGTGATATTTAATAATTATTTATAATCAGCAACTTAACCACAAAACAACCATATATTGATATNTCACAAAACAACCATAANTTGATATTTTTGTGAATCGAGTATTTCAGCAAAACTACTGCAGTAAGAA

Tests used:
[1] = variants of: B1; experiment: relative integration efficiency (T-LR orientation) vs wild-type transposon end (log2 (normalized fold change)); transposon end mutated: left end; higher = more efficient transposition; conditions: with VchCAST RNA-guided transposition machinery (E. coli BL21(DE3) host, lacZ target)
Experimental: (§1)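 Pooled, barcoded VchCAST (Tn6677) mini-transposon donor libraries; each variable transposon-end sequence sits in a fixed pDonor mini-transposon context (10-bp barcode and cargo not included). Left- or right-end libraries were co-transformed with pEffector (TniQ-Cascade, TnsABC, lacZ crRNA, T7, 0.1 mM IPTG) into E. coli BL21(DE3) and grown 18 h at 37 C. T-LR and T-RL junction amplicons were sequenced; output/input barcode fold change was normalised to the mean of four wild-type barcodes and log2-transformed. Two biological replicates; zero-count/undetected variants carry floor values (-10 / -15), censored here. Barcode uncoupling by PCR recombination adds noise.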

[2] = variants of: B1; experiment: relative integration efficiency (T-RL orientation) vs wild-type transposon end (log2 (normalized fold change)); transposon end mutated: left end; higher = more efficient transposition; conditions: with VchCAST RNA-guided transposition machinery (E. coli BL21(DE3) host, lacZ target)
Experimental: as §1

| Variant | relative integration efficiency (log2) [1] | relative integration efficiency (log2) [2] |
| --- | --- | --- |
| AATGTTGTTGATGCACCCATAAATTGATAATTAATAATTATTTATAATCAGCAACTTAACCACAAAACAACCATAAAATGATAATTAACAAAACAACCATAAAGTGATATTTATGTGAATCGAGTATTTCAGCAAAACTACTGCAGTAAGAA [TA A16C G24T T30A T76A T78A T84A C87A T104G T113A] | -0.559 ± 0.18 | -0.412 ± 0.26 |
| AATGTTGTTGATGCACCCATAAATTGATAATTAATAATTATTTATAATCAGCAACTTAACCACAAAACAACCATAAAGTGATATTTAACAAAACACCCATAAATTGATATTGCTGTGAATCGAGTATTTCAGCAAAACTACTGCAGTAAGAA [TA A16C G24T T30A T76A T78G C87A A96C T112G T113C] | -0.557 ± 0.27 | -0.232 ± 0.21 |
| AATGTTGTTGATGCACCCATAAATTGATAATTAATAATTATTTATAATCAGCAACTTAACCACAAAACAACCATAAAGTGATATTTAACAAAACAACCATATATTGATATCTCTGTGAATCGAGTATTTCAGCAAAACTACTGCAGTAAGAA [TA A16C G24T T30A T76A T78G C87A A102T T111C T113C] | -0.495 ± 0.48 | -0.243 ± 0.23 |
| AATGTTGTTGATGCACCCATAAATTGATAATTAATAATTATTTATAATCAGCAACTTAACCACAAAACAACCATAAAGTGATATTTAACAAAACAACCATAAAATGATAATTATGTGAATCGAGTATTTCAGCAAAACTACTGCAGTAAGAA [TA A16C G24T T30A T76A T78G C87A T104A T110A T113A] | -0.00394 ± 0.69 | -0.0421 ± 0.16 |
| AATGTTGTTGATGCACCCATAAATTGATAATTAATAATTATTTATAATCAGCAACTTAACCACAAAACAACCATAAAATGATAATTAACAAAACACCCATAAATTGATATTGCTGTGAATCGAGTATTTCAGCAAAACTACTGCAGTAAGAA [TA A16C G24T T30A T76A T78A T84A C87A A96C T112G T113C] | -0.55 ± 0.9 | -0.0685 ± 0.46 |
| AATGTTGTTGATGCACCCATAAATTGATAATTAATAATTATTTATAATCAGCAACTTAACCACAAAACAACCATAAAATGATAATTAACAAAACAACCATATATTGATATCTCTGTGAATCGAGTATTTCAGCAAAACTACTGCAGTAAGAA [TA A16C G24T T30A T76A T78A T84A C87A A102T T111C T113C] | -0.306 ± 1.3 | -0.415 ± 0.32 |
| AATGTTGTTGATGCACCCATAAATTGATAATTAATAATTATTTATAATCAGCAACTTAACCACAAAACAACCATAAAGTGATATTTAACAAAACAACCATAAAGTGATATTTATGTGAATCGAGTATTTCAGCAAAACTACTGCAGTAAGAA [TA A16C G24T T30A T76A T78G C87A T104G T113A] | -0.0106 ± 0.39 | -0.0789 ± 0.27 |
| AATGTTGTTGATGCACCCATAAATTGATAATTAATAATTATTTATAATCAGCAACTTAACCACAAAACAACCATAAAGTGATATTTAACAAAACACCCATAAATTGATAATTATGTGAATCGAGTATTTCAGCAAAACTACTGCAGTAAGAA [TA A16C G24T T30A T76A T78G C87A A96C T110A T113A] | 0.235 ± 1.1 | 0.17 ± 0.13 |
| AATGTTGTTGATGCACCCATAAATTGATAATTAATAATTATTTATAATCAGCAACTTAACCACAAAACAACCATAAAATGATAATTAACAAAACAACCATAAAATGATAATTATGTGAATCGAGTATTTCAGCAAAACTACTGCAGTAAGAA [TA A16C G24T T30A T76A T78A T84A C87A T104A T110A T113A] | 0.114 ± 0.83 | -0.0645 ± 0.35 |
| AATGTTGTTGATGCACCCATAAATTGATAATTAATAATTATTTATAATCAGCAACTTAACCACAAAACAACCATAAAATGATAATTAACAAAACACCCATAAATTGATAATTATGTGAATCGAGTATTTCAGCAAAACTACTGCAGTAAGAA [TA A16C G24T T30A T76A T78A T84A C87A A96C T110A T113A] | -0.28 ± 0.67 | -0.316 ± 0.43 |
